From the supplement of paper PMC7877785
± gives the uncertainty stated by the source.

Assay: self-splicing fitness, log relative to wild type (ln ratio); higher = more splicing; Tetrahymena group I intron in knt gene, E. coli kanamycin selection, DiMSum; sequences stand for … in CUCUCU…GGAGGGAAAAGUUAUCAGGCAUGCACCUGGUAGCUAGUCUUUAAACCAAUAGAUUGCAUCGGUUUAAAAGGCAAGACCGUCAAAUUGCGGGAAAGGGGUCAACAGCCGUUCAGUACCAAGUCUCAGGGGAAACUUUGAGAUGGCCUUGCAAAGGGUAUGGUAAUAAGCUGACGGACAUGGUCCUAACCACGCAGCCAAGUCCUAAGUCAACAGAUCUUCUGUUGAUAUGGAUGCAGUUCACAGACUAAAUGUCGGUCGGGGAAGAUGUAUUCUUCUCAUAAGAUAUAGUCGGACCUCUCCUUAAUGGGAGCUAGCGGAUGAAGUGAUGCAACACUGGAGCCGCUGGGAACUAAUUUGUAUGCGAAAGUAUAUUGAUUAGUUUUGGAGUACUCGUGGUCG
Summary of the method: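 Six replicate transformations of E. coli BL21(DE3) with a pET-22b(+) library were grown overnight at 37°C or 30°C. The library randomised all eight P1ex-region intron nucleotides, the intron lying in the knt kanamycin-resistance gene, and plates were LB agar with or without 25 μg/mL kanamycin plus 100 μg/mL carbenicillin, 50 μM IPTG and 0.2% rhamnose. Pooled colonies were amplicon-sequenced on an Illumina HiSeq 2500, and fitness is the DiMSum error-weighted combination of wild-type-normalised replicate fold changes, kanamycin versus none.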

Sequence	self-splicing fitness (ln) (30 °C)	self-splicing fitness (ln) (37 °C)
CCACAGCAAUAUUACGCAUG	-1.64 ± 0.073	-0.648 ± 0.067
CCACAGCAAUAUUACGCUGC	-3.06 ± 0.17	-2.72 ± 0.28
CCACAGCAAUAUUACGCUUU	-4.05 ± 0.25	-2.18 ± 0.19
CCACAGCAAUAUUACGGAUG	-1.97 ± 0.082	-1.19 ± 0.1
CCACAGCAAUAUUACGGAUU	-3.49 ± 0.11	-3.12 ± 0.15
CCACAGCAAUAUUACGGCAG	-1.16 ± 0.072	-0.579 ± 0.085
CCACAGCAAUAUUACGGCGU	-3.24 ± 0.21	-2.75 ± 0.31
CCACAGCAAUAUUACGGGAU	-4.56 ± 0.26	-2.33 ± 0.15
CCACAGCAAUAUUACGGGGU	-3.71 ± 0.098	-2.53 ± 0.11
CCACAGCAAUAUUACGGUCC	-2.75 ± 0.32	-2.32 ± 0.32
CCACAGCAAUAUUACGGUGA	-0.943 ± 0.06	-0.339 ± 0.062
CCACAGCAAUAUUACGGUGC	-4.03 ± 0.19	-2.97 ± 0.2
CCACAGCAAUAUUACGGUGU	-2.98 ± 0.12	-3.03 ± 0.2
CCACAGCAAUAUUACGUCCU	-3.44 ± 0.27	-1.76 ± 0.19
CCACAGCAAUAUUACGUGCU	-3.61 ± 0.17	-2.88 ± 0.17
CCACAGCAAUAUUACGUGGU	-4.13 ± 0.14	-3.65 ± 0.17
CCACAGCAAUAUUACGUUCC	-4.24 ± 0.24	-2.84 ± 0.27
CCACAGCAAUAUUACGUUUC	-4.16 ± 0.22	-2.44 ± 0.24
CCAGAGCAAUAUUACGAAGG	-3.47 ± 0.19	-1.92 ± 0.22
CCAGAGCAAUAUUACGACUA	-2.95 ± 0.28	-2.47 ± 0.38
CCAGAGCAAUAUUACGAGCC		-1.84 ± 0.42
CCAGAGCAAUAUUACGAGGC	-2.82 ± 0.38	-1.34 ± 0.41

Sequence	self-splicing fitness (ln) (30 °C)	self-splicing fitness (ln) (37 °C)
CCAGAGCAAUAUUACGAGUA	-2.97 ± 0.23	-3.39 ± 0.28
CCAGAGCAAUAUUACGAUAC	-2.7 ± 0.2	-1.71 ± 0.21
CCAGAGCAAUAUUACGAUGA	-1.88 ± 0.14	-0.518 ± 0.11
CCAGAGCAAUAUUACGCACG	-2.06 ± 0.22	0.34 ± 0.17
CCAGAGCAAUAUUACGCUGC	-2.85 ± 0.27	-1.28 ± 0.25
CCAGAGCAAUAUUACGCUUA	-3.34 ± 0.43	
CCAGAGCAAUAUUACGGAUU	-3.05 ± 0.15	-2.38 ± 0.16
CCAGAGCAAUAUUACGGCUC	-2.69 ± 0.23	-2.76 ± 0.26
CCAGAGCAAUAUUACGUAAU	-3.66 ± 0.23	-3.18 ± 0.3
CCAGAGCAAUAUUACGUACG	-1.46 ± 0.12	-0.669 ± 0.13
CCAGAGCAAUAUUACGUAGG	-3.25 ± 0.19	-2.6 ± 0.25
CCAGAGCAAUAUUACGUGUC	-2.88 ± 0.21	-2.29 ± 0.32
CCAGAGCAAUAUUACGUUUA	-3.95 ± 0.29	-1.78 ± 0.2
CCAUAGCAAUAUUACGAAAU	-2.98 ± 0.37	
CCAUAGCAAUAUUACGAAGA	-3.41 ± 0.29	-2.91 ± 0.34
CCAUAGCAAUAUUACGACUC	-3.37 ± 0.32	-2.18 ± 0.28
CCAUAGCAAUAUUACGAGUC	-4.04 ± 0.19	-2.89 ± 0.21
CCAUAGCAAUAUUACGAGUG	-1.44 ± 0.092	-0.172 ± 0.097
CCAUAGCAAUAUUACGCAGA	-2.96 ± 0.21	-2.16 ± 0.24
CCAUAGCAAUAUUACGCCGA	-1.4 ± 0.26	-1.57 ± 0.42
CCAUAGCAAUAUUACGCCUA	-2.85 ± 0.27	-2.93 ± 0.35
